For assay [1], the target named is T1, CC1H, major antigenic region of PLA2R (human, UniProt Q13018 21-367).
T1 construct: Secreted from CHO-S cells, purified on Ni column; also called CCIh
Nature of the assay: indirect ELISA, CC1h coated at 2 µg/mL, anti-human IgG Fc HRP, ΔOD450. On the procedure:
The human anti-human PLA2R antibody after phage screening and expression in Example 2 was measured in terms of the ability of binding to CC1h using the indirect ELISA method.
(§1) 30 μL of CC1h (2 μg/mL, diluted with 1*PBS) was added to the reaction wells of the ELISA plate, and the plate was sealed and incubated at 4° C. overnight. The plate was washed with PBST for 3 times, and the liquid in the wells was discarded. 5% PBSM was added to block the ELISA plate at room temperature for 2 hours. The plate was washed with PBST for 3 times by adding 30 μL of Abs (diluted with 1*PBS) to each well of the ELISA plate, and the plate was incubated at room temperature for 60 min. The plate was washed with PBST for 3 times, 30 μL of anti-human IgG Fc HRP (diluted with 1% PBSM at a ratio of 1:8000) was added to each well, and incubated at room temperature for 60 min. TMB was added and the reaction was stopped with 2M blocking solution and the OD value was detected at 450 nm. Recombinant Ipilimumab (Sanyou Biopharmaceuticals Co., Ltd.) was used as a negative control. The test results were illustrated in Table 2 as well as FIG. 4 and FIG. 5.
(An ELISA detects its analyte on a solid surface through an enzyme-linked reagent.)

The target of the next assay is T2, CC1H-Biotin (human, UniProt Q13018 21-367, biotin by EZ-Link Sulfo-NHS-LC-Biotin, 1.80 mol Biotin/mol protein; sites not given).
T2 construct: also called biotin-labeled CC1H
Nature of the assay: BLI (Octet N1), CC1H-Biotin on SA sensor, antibody 76.6-8.5 nM. On the procedure: Sartorius Octet® N1 molecular interaction instrument was used, the SA sensor (Sartorius, Octet® Streptavidin (SA) Biosensor, 18-5019) was selected.
The sensor was immersed in a PBSTB buffer (0.02% Tween-20 and 0.1% BSA were added in the PBS buffer) to be pre-wetted for 10 min or longer, and loaded onto the molecular interaction instrument.
The association constant (Ka), dissociation constant (Kd), and affinity constant (KD) were calculated and illustrated in Table 5 for details.
A general note: In BLI a coated tip is dipped into the sample, and binding shifts an interference pattern.

For assay [2], the target named is T1, CC1H, major antigenic region of PLA2R. Nature of the assay: indirect ELISA, CC1h coated at 2 ug/mL, anti-human IgG Fc HRP. On the procedure:
as §1

B1: B145 (antibody, human IgG4, kappa, V domains shown)
VH: QLQLQESGPGLVKPSQTLSLTCTVSGGSISSGGYYWSWIRQHPGKGLEWIGYIYYSGSTYYNPSLKSRVTISVDTSKNQFSLKLSSVTAADTAVYYCARGKRDGYNYYFDYWGQGTLVTVSS
VL: DIVMTQSPSSLSASVGDRVTITCQASQDISNYLNWYQQKPGKAPKLLIYDASSLESGVPSKFSGSRSGTDFTLTISSLQPEDSATYYCQQYRSYPITFGGGTKVEIKR
notes: also called P59396
On to B1, for which the binding result in assay [1] is “no binding”.

B2: A22 (antibody, human IgG4, kappa, V domains shown)
VH: EVQLVESGAEVKKPGSSVKVSCKASGGTFSSYAISWVRQAPGQGLEWMGGIIPIFGTANYAQKFQGRVTITADESTSTAYMELSSLRSEDTAVYYCAFTSGSYYYFDYWGQGTLVTVSS
VL: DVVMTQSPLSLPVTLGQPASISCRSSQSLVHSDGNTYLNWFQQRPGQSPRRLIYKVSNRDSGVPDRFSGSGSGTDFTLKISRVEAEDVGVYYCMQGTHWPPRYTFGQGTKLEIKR
notes: also called P59370
Turning to B2, the binding result in assay [1] is on record as “no binding”.

B3: B156 (antibody, human IgG4, kappa)
heavy: not shown
light: DIQLTQSPSSLSASIGDRVTITCRASQGISSFLAWYQQKPGKAPQLLIYAASTLQSGVPSRFSGSGSGTEFTLTISSLQPEDFATYYCQQFKIYPLTFGGGTKVEVKRTVAAPSVFIFPPSDEQLKSGTASVVCLLNNFYPREAKVQWKVDNALQSGNSQESVTEQDSKDSTYSLSSTLTLSKADYEKHKVYACEVTHQGLSSPVTKSFNRGEC
notes: also called P59397
A word on the Kd: it is a measure of binding affinity in units of concentration. Read a low Kd as tighter binding. The term koff denotes the rate constant with which the complex falls apart. A high value points to fast dissociation. What is called kon is a measure of how fast the partners come together. For orientation: EC50 means the concentration giving half of the maximal effect. A higher EC50 goes with lower potency in that assay. As for B3, in the assay with CC1H-Biotin, binding was put at a Kd of 0.242 nM, the koff worked out at 0.000125 s⁻¹ and the kon is 516000 M⁻¹ s⁻¹. Also, the EC50 in assay [2] is 10.5 ng/mL.

B4: B156 (IgG4SP) (antibody)
heavy: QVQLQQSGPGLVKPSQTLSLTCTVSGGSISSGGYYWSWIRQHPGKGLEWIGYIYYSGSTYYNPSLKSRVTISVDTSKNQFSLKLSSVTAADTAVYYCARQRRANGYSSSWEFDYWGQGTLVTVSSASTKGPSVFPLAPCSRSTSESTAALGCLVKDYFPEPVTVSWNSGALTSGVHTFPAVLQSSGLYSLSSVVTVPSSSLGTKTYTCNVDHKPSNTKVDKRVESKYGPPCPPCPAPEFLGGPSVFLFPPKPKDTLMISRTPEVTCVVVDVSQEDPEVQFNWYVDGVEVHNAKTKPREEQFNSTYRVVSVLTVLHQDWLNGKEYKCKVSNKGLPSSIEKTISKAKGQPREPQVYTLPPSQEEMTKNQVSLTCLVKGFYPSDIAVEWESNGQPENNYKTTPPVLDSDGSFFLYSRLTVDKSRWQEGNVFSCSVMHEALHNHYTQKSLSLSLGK
light: DIQLTQSPSSLSASIGDRVTITCRASQGISSFLAWYQQKPGKAPQLLIYAASTLQSGVPSRFSGSGSGTEFTLTISSLQPEDFATYYCQQFKIYPLTFGGGTKVEVKRTVAAPSVFIFPPSDEQLKSGTASVVCLLNNFYPREAKVQWKVDNALQSGNSQESVTEQDSKDSTYSLSSTLTLSKADYEKHKVYACEVTHQGLSSPVTKSFNRGEC
notes: IgG4SP (S228P in the hinge, already in the heavy chain entry); also called B156SP; P62304
Turning to B4, in the assay with CC1H-Biotin, the Kd was under 0.001 nM, the koff was under 1e-07 s⁻¹ and the kon came out at 654000 M⁻¹ s⁻¹. In assay [2], this molecule returned an EC50 of 8.12 ng/mL.

B5: A61 (antibody, human IgG4, kappa)
heavy: not shown
light: DIVMTQSPLSLPVTLGQPASISCRSSQSLVKSDGNTYLSWFQQRPGQSPRRLIYKVSNRDSGVPDRFSGSGSGTDFTLKISRVEAEDVGVYYCMQGTHWPPTFGPGTKVDIKRTVAAPSVFIFPPSDEQLKSGTASVVCLLNNFYPREAKVQWKVDNALQSGNSQESVTEQDSKDSTYSLSSTLTLSKADYEKHKVYACEVTHQGLSSPVTKSFNRGEC
notes: also called P59375
In the assay with CC1H-Biotin, B5 displayed a dissociation constant (Kd) of 0.0178 nM, a koff of 1.89e-05 s⁻¹ and a kon of 1.06e+06 M⁻¹ s⁻¹. In addition, it took 4.6 ng/mL to reach a half-maximal effect in assay [2] (EC50).

B6: A61 (IgG4SP) (antibody)
heavy: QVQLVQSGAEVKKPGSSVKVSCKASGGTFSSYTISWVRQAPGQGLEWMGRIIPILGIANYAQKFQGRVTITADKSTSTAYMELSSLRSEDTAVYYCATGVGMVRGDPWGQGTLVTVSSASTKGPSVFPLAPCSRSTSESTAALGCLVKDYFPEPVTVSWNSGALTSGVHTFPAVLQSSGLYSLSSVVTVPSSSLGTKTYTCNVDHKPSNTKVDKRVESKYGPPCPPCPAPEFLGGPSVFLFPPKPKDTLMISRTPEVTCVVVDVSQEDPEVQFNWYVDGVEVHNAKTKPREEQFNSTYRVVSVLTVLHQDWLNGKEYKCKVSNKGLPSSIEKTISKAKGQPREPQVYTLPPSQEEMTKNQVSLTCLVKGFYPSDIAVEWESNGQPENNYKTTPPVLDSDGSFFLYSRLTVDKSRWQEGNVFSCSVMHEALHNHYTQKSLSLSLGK
light: DIVMTQSPLSLPVTLGQPASISCRSSQSLVKSDGNTYLSWFQQRPGQSPRRLIYKVSNRDSGVPDRFSGSGSGTDFTLKISRVEAEDVGVYYCMQGTHWPPTFGPGTKVDIKRTVAAPSVFIFPPSDEQLKSGTASVVCLLNNFYPREAKVQWKVDNALQSGNSQESVTEQDSKDSTYSLSSTLTLSKADYEKHKVYACEVTHQGLSSPVTKSFNRGEC
notes: IgG4SP (S228P in the hinge, already in the heavy chain entry); also called A61SP; P62298
B6: in the assay with CC1H-Biotin, the affinity, expressed as Kd, was 0.126 nM; the off-rate constant (koff) worked out at 8.17e-05 s⁻¹; the kon was 648000 M⁻¹ s⁻¹. The same molecule showed an EC50 in assay [2] of 10.3 ng/mL.

B7: B44 (antibody, human IgG4, kappa, V domains shown)
VH: QVQLVQSGAEVKKPGASVKVSCKASGYTFTSYYMHWVRQAPGQGLEWMGIINPSGGSTSYAQKFQGRVTMTRDTSTSTVYMELSSLRSEDTAVYYCARGVSRRGAFDIWGQGTMVTVSS
VL: DVVMTQSPLSLPVTPGEPASISCRSSQSLLHRSGYNYLDWYVQKPGQSPQLLIYLGSIRAVGVPDRFSGSASGTDFTLRISRVEAEDVGIYYCMQALQTPPAFGGGTKVEIKR
notes: also called P59386
As to B7, the binding result in assay [1] is “no binding”.

B8: B90 (antibody, human IgG4, kappa)
heavy: not shown
light: DIQMTQSPSILSASVGDRVTLTCRASQSISSWLAWYQQTPGKAPRVLIYEASTLEVGVPSRFSGSGSGTDFTLTISSLQPEDFGTYFCQQYHTDSRTFGQGTILEIKRTVAAPSVFIFPPSDEQLKSGTASVVCLLNNFYPREAKVQWKVDNALQSGNSQESVTEQDSKDSTYSLSSTLTLSKADYEKHKVYACEVTHQGLSSPVTKSFNRGEC
notes: also called P59391
With B8, in the assay with CC1H-Biotin, the dissociation constant (Kd) came out at 0.841 nM, the koff was 0.000512 s⁻¹ and the kon is 608000 M⁻¹ s⁻¹. In addition, the EC50 in assay [2] turned out to be 2.96 ng/mL.

B9: B90 (IgG4SP) (antibody)
heavy: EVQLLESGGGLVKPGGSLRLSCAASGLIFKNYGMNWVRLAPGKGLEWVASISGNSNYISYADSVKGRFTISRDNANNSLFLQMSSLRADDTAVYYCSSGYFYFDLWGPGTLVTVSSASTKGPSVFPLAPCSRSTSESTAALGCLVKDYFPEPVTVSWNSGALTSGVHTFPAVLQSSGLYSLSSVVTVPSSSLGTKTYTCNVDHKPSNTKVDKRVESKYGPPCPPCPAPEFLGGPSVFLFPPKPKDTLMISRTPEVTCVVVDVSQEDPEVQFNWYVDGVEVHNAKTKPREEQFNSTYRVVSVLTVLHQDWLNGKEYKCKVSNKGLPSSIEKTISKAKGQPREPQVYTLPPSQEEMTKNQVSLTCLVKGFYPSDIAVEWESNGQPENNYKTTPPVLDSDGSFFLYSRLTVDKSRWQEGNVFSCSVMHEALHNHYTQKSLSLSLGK
light: DIQMTQSPSILSASVGDRVTLTCRASQSISSWLAWYQQTPGKAPRVLIYEASTLEVGVPSRFSGSGSGTDFTLTISSLQPEDFGTYFCQQYHTDSRTFGQGTILEIKRTVAAPSVFIFPPSDEQLKSGTASVVCLLNNFYPREAKVQWKVDNALQSGNSQESVTEQDSKDSTYSLSSTLTLSKADYEKHKVYACEVTHQGLSSPVTKSFNRGEC
notes: IgG4SP (S228P in the hinge, already in the heavy chain entry); also called B90SP; P62303
In the assay with CC1H-Biotin, B9 gave a Kd of 6.59 nM, a koff of 0.000639 s⁻¹ and a kon of 97000 M⁻¹ s⁻¹. In assay [2], this molecule displayed a concentration for a half-maximal effect (EC50) of 19.5 ng/mL.

B10: A156 (antibody, human IgG4, kappa)
heavy: not shown
light: AIQLTQSPSSLSASVGDRVTITCRASQGISSYLAWYQQKPGKAPKLLIFAASLLQRGVPSRFSGSGFGTDFTLTISGLQPEDFATYFCQQFNTYPITFGGGTKVEIKRTVAAPSVFIFPPSDEQLKSGTASVVCLLNNFYPREAKVQWKVDNALQSGNSQESVTEQDSKDSTYSLSSTLTLSKADYEKHKVYACEVTHQGLSSPVTKSFNRGEC
notes: also called P59378
In the case of B10, in the assay with CC1H-Biotin, the equilibrium dissociation constant (Kd) is 0.158 nM, the koff was 0.000102 s⁻¹ and the kon was 644000 M⁻¹ s⁻¹. The same molecule yielded an EC50 in assay [2] of 6.9 ng/mL.

B11: A156 (IgG4SP) (antibody)
heavy: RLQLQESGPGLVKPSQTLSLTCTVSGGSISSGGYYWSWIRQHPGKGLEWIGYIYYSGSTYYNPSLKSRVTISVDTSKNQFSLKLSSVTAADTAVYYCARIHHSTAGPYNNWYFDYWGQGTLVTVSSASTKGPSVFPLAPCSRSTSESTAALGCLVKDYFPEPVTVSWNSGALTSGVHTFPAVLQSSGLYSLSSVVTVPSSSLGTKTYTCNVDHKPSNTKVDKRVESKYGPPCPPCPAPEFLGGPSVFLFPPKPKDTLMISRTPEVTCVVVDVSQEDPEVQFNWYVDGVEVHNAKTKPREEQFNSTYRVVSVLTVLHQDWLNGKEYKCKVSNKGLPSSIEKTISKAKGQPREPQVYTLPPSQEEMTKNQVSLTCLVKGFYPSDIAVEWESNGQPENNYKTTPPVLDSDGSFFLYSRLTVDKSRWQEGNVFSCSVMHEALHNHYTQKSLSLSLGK
light: AIQLTQSPSSLSASVGDRVTITCRASQGISSYLAWYQQKPGKAPKLLIFAASLLQRGVPSRFSGSGFGTDFTLTISGLQPEDFATYFCQQFNTYPITFGGGTKVEIKRTVAAPSVFIFPPSDEQLKSGTASVVCLLNNFYPREAKVQWKVDNALQSGNSQESVTEQDSKDSTYSLSSTLTLSKADYEKHKVYACEVTHQGLSSPVTKSFNRGEC
notes: IgG4SP (S228P in the hinge, already in the heavy chain entry); also called A156SP; P62300
In the assay with CC1H-Biotin, B11 had a Kd of 0.456 nM, a koff of 0.000169 s⁻¹ and an on-rate constant (kon) of 371000 M⁻¹ s⁻¹. For the same molecule, the EC50 in assay [2] was found to be 14.7 ng/mL.

B12: A53 (antibody, human IgG4, kappa, V domains shown)
VH: EVQLLESGPGLVKPSQTLSLTCTVSGGSISSGGYYWSWIRQHPGKGLEWIGYIYYSGSTYYNPSLKSRVTISVDTSKNQFSLKLSSVTAADTAVYYCARDSRGRSYGMDVWGQGTMVTVSS
VL: DIQMTQSPSSLSASVGDRVTITCRASQSINNYLNWYQEKPGKAPKLLIYAASSLQSGVPSRFSGSGSGTDFTLTISSLQPEDFATYYCQQSYSYPFTFGPGTKVDIKR
notes: also called P59374
As to B12, a half-maximal effect in assay [2] (EC50) was put at 4.03 ng/mL.

The values are drawn from US20250340652A1 (CHENGDU DI AO PHARMACEUTICAL GROUP, published 2025).
